From patent US20230279079A1 (CHANG GUNG MEMORIAL HOSPITAL LINKOU, published 2023)
Changes are numbered by the printed parent chain.

B1: FD 1D (antibody, V domains shown)
VH: EVQLVESGGGVVQPGRSLRLSCAASGFTFSSYAMHWVRQAPGKGLEWVAVISYDGSNKYYADSVKGRFTISRDNSKNTLYLQMNSLRAEDTAVYYCARAGSGSYLNWFDPWGQGTLVTVSS
VL: EIVLTQSPATLSLSPGERATLSCRASQSVSSYLAWYQQKPGQAPRLLIYDASNRATGIPARFSGSGSGTDFTLTISSLEPEDFAVYYCQQRSNWPITFGQGTRLEIK
B2: EW 9B (antibody, V domains shown)
VH: EVQLVQSGAEVKKPGASVKVSCKASGYTFTSYYMHWVRQAPGQGLEWMGIINPSGGSTSYAQKFQGRVTMTRDTSTSTVYMELSSLRSEDTAVYYCAREDGVVPAANLMISLEDYYYYGMDVWGQGTTVTVSS
VL: B1 VL with I96L, Q100G, R103K, L104V, E105D

What was measured:
Test in all cases: ELISA
[1] = target: T1, SARS-CoV-2 spike S1 subunit (SARS-CoV-2, UniProt P0DTC2 16-685)
T1 construct: domain: S1 subunit

[2] = target: T2, SARS-CoV-2 spike extracellular domain (SARS-CoV-2, UniProt P0DTC2 14-1213)
T2 construct: extracellular domain; also called spike protein of SARS-CoV-2

[3] = target: T3, SARS-CoV-2 spike S2 subunit (SARS-CoV-2, UniProt P0DTC2 686-1213)
T3 construct: domain: S2 subunit

[4] = target: T4, MERS spike extracellular domain (Middle East respiratory syndrome …, UniProt K9N5Q8 18-1296)
T4 construct: extracellular domain
T4 sequence (K9N5Q8 18-1296): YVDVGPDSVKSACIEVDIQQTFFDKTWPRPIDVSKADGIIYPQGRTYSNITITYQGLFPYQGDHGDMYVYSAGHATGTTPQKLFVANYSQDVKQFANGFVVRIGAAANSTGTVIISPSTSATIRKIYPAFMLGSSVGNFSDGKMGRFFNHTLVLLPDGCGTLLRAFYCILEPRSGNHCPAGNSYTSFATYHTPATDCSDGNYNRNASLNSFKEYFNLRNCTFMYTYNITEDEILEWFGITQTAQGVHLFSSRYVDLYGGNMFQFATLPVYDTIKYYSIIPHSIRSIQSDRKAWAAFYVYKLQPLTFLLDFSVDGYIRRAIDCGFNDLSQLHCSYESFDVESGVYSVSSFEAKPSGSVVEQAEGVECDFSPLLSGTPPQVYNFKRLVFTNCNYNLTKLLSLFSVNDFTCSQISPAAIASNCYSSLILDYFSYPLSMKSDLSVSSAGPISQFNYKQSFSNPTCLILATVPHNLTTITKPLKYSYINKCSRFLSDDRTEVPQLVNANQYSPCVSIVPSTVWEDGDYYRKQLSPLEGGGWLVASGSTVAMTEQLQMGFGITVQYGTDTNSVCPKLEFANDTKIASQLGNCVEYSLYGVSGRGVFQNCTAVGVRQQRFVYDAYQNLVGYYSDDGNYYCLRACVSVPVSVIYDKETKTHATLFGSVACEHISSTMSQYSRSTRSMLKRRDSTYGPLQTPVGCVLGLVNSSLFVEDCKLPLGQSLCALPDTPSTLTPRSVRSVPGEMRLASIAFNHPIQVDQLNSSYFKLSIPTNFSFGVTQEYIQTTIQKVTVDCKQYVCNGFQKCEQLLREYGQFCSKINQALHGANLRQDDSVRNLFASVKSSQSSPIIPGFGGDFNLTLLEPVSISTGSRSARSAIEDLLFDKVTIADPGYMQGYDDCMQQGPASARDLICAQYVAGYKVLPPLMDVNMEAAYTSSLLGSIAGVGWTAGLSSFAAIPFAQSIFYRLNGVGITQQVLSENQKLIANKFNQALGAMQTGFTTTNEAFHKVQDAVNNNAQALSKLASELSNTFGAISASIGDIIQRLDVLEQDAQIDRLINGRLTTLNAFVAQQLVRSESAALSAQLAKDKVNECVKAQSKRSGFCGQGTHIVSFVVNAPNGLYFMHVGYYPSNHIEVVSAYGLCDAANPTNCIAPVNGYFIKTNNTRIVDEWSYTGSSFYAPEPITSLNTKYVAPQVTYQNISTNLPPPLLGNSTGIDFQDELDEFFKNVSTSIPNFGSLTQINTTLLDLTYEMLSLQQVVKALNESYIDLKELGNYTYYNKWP

[5] = target: T5, SARS-CoV-2 spike receptor binding domain (RBD) (SARS-CoV-2, UniProt P0DTC2 319-541)
T5 construct: also called SARS-CoV-2 RBD

[6] = target: T6, SARS spike S1 subunit (severe acute respiratory syndrome …, UniProt P59594 14-667)
T6 construct: domain: S1 subunit

[7] = target: T7, Human coronavirus OC43 spike extracellular domain (human coronavirus OC43, UniProt P36334 14-1297)
T7 construct: extracellular domain
T7 sequence (P36334 14-1297): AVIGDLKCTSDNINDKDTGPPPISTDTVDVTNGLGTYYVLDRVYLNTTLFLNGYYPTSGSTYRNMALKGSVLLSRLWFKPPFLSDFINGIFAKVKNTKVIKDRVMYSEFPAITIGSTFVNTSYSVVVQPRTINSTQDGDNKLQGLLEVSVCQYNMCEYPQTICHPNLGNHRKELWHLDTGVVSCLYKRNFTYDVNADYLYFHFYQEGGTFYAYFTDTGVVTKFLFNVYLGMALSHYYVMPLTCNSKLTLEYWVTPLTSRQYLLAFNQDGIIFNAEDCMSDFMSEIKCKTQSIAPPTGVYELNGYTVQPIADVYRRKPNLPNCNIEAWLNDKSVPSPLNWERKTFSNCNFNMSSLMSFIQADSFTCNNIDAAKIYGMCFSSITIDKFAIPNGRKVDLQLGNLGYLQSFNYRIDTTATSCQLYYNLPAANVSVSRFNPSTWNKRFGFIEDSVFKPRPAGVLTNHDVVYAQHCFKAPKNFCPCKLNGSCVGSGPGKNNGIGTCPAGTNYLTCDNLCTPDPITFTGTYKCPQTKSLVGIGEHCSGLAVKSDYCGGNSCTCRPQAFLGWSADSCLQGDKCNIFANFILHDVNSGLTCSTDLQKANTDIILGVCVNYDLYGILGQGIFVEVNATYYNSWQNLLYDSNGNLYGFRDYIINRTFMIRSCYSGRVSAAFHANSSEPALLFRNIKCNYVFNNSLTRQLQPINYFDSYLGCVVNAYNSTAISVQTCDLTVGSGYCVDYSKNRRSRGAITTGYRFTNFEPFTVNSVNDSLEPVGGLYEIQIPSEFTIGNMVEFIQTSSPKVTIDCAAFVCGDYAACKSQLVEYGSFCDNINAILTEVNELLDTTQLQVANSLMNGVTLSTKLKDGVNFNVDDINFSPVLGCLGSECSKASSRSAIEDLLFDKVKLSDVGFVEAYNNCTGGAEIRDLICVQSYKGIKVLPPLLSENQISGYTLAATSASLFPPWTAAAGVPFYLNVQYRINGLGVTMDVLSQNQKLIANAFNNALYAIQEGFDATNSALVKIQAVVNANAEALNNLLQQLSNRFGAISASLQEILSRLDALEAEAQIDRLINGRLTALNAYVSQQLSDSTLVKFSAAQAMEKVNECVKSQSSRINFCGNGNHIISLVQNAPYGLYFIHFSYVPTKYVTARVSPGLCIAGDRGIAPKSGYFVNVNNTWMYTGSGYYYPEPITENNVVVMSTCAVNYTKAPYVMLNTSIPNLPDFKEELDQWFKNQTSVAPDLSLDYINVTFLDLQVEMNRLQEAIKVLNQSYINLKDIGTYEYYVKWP

| Binder | binding result [1] | binding result [2] | binding result [3] | binding result [4] | binding result [5] | binding result [6] | binding result [7] |
| --- | --- | --- | --- | --- | --- | --- | --- |
| B1 | no binding | binds | binds | binds | no binding | binds | binds |
| B2 |  | binds | no binding | no binding | no binding | no binding | no binding |
